In article PMC8065039 (Communications Biology, 2021):

What was measured:
[1] = target: recombinant SARS-CoV-2 Spike RBD (catalogue number not stated for this experiment) (SARS-CoV-2, UniProt P0DTC2); assay: ELISA; details: both partners purified
[2] = target: recombinant SARS-CoV-2 Spike S1 + S2 protein (40589-V08B1, Sino Biological) (SARS-CoV-2, Wuhan-1 (MN908947), UniProt P0DTC2); assay: ELISA; details: both partners purified
[3] = target: SARS-CoV-2 Spike protein on transfected CHO-K1 cells (GenScript RD00819) (SARS-CoV-2, UniProt P0DTC2); assay: cell-based or functional assay
[4] = target: extracellular domain of SARS-CoV-2 S protein (S-ECD), 1-1208 aa, with two proline substitutions, GSAS … (SARS-CoV-2, Wuhan-Hu-1, UniProt P0DTC2, proline substitution at residue 986 | proline substitution at residue 987 | …); assay: cryo-EM structure; details: both partners purified
[5] = target: SARS-CoV-2 Spike-Trimer protein (Shuimu BioSciences Ltd.) (SARS-CoV-2, Wuhan-Hu-1 assumed, UniProt P0DTC2); assay: BLI; details: both partners purified

B1: CA521^FALA (human IgG4 monoclonal antibody with the F234A/L235A mutation) (antibody, V domains shown)
VH: EVQLQQWGAGLLKPSETLSLTCAVYGGSFSGYYWSWIRQPPGKGLEWIGEVNHSGSTNYNPSLKSRVTISVDTSKNQLSLKLNSVTAADTAVYYCARGNTMVRGVIIPFEYWDKGTLVTVSS
VL: EIVLTQSPATLSLSPGERATLSCRASQSVSSYLAWYQQKPGQAPRLLIYDASNRATGIPARFSGSGSGTDFTLTISSLEPEDFAVYYCQQRSNWPLTFGGGTKVEIK
notes: also called CA521^FALA IgG; full-length CA521^FALA IgG; source: Expi-CHO Expression system, purified (protein A, Q FF, Capto S ImpAct)
- IC50 [1]: 343 pM
- EC50 [2]: 14 pM
- IC50 of inhibition of SARS-CoV-2 pseudovirus transduction into Huh-7 cells [3]: 121 pM
- binding result [4]: binds
- Kd [5]: < 1 pM
